In patent US20260042836A1:
Substitutions are numbered along the chain they refer to. Names and notes keep the numbering of the source. Blank lines part the entries; values can stand above or below the binder they belong to.

Tests used:
[1] = target: Butyrophilin Subfamily 2 Member A1 (BTN2A1) (human) (UniProt Q7KYR7); experiment: cell-based or functional assay
BTN3A1/A2/A3 = experiment: cell-based or functional assay
[2] = target: BTN2A1; BTN3A1; BTN3A2/A3 peptide on (human); experiment: luciferase killing assay, 20 h; T cells + three luciferase tumour cell lines (10:1) + purified GAB + 30 µM pamidronate; fusion: anti-CD3 scFv (GAB)
[3] = target: BTN2A1; BTN3A1; BTN3A2/A3 peptide on (human); experiment: luciferase killing assay, 20 h; T cells + luciferase target cells (5:1) + purified GAB + 30 µM pamidronate; fusion: anti-CD3 scFv (GAB)

UniProt Q7KYR7, sequence (Q7KYR7 29-527): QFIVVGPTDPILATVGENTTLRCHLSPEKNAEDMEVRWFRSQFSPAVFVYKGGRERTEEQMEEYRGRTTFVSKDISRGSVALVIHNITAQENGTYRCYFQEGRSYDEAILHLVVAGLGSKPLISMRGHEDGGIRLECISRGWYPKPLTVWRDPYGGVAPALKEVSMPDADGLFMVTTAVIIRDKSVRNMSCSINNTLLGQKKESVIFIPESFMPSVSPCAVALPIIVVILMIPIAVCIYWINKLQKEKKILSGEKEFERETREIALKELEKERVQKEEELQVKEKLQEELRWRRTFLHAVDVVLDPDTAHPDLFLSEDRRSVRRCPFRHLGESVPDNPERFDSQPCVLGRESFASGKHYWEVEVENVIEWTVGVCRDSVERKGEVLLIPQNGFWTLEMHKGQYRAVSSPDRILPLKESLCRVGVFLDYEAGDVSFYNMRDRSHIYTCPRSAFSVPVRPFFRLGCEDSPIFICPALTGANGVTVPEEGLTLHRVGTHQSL

B1: Vγ9Vδ2TCR MNP2γE22W (TCR, part only; not given: rest of gamma chain, delta chain, part only)
TCR gamma, part: AGHLEQPQISSTKTLSKTARLWCVVSGITISATSVYWYRERPGEVIQFLVSISYDGTVRKESGIPSGKFEVDRIPETSTSTLTIHNVEKQDIATYYCALWE
killing of luciferase transduced RPMI8226 cells by TCR-transduced αβT cells (MNP2 wt killed around 60%) [1]: > 90%

B2: GAB-AJ8s-Vγ9 mutation T81I (TCR, part only; not given: CDR3 delta, constant parts, anti-CD3 scFv, part only)
TCR gamma, part: B1 TCR gamma, part with W22E, R73Y, T81I
TCR delta, part: AIELVPEHQTVPVSIGVPATLRCSMKGEAIGNYYINWYRKTQGNTMTFIYREKDIYGPGFKDNFQGDIDIAKNLAVLKILAPSERDEGSYYCACDT
IFNγ production relative to GAB-AJ8s (GAB expression media, MZ1851RC, 30 µM pamidronate) [1]: 2 fold

B4: GAB-AJ8sγE22WδK53S (TCR, part only; not given: CDR3 delta, constant parts, anti-CD3 scFv, part only)
TCR gamma, part: B1 TCR gamma, part with R73Y
TCR delta, part: B2 TCR delta, part with K53S
IFNγ release, potency against the single mutants (combined Vγ9 and Vδ2 mutations; RPMI8226 and SCC9) (BTN3A1/A2/A3): 10 fold | T cell mediated killing of RPMI8226 and SCC9, potency against GAB-AJ8s (BTN3A1/A2/A3): > 100 fold | T cell mediated killing of RPMI8226 and SCC9, potency against the single Vγ9 or Vδ2 mutants (BTN3A1/A2/A3): > 10 fold | IFNγ release, potency against the single mutants (combined Vγ9 and Vδ2 mutations; RPMI8226 and SCC9) [1]: 10 fold | T cell mediated killing of RPMI8226 and SCC9, potency against GAB-AJ8s [1]: > 100 fold | T cell mediated killing of RPMI8226 and SCC9, potency against the single Vγ9 or Vδ2 mutants [1]: > 10 fold

B5: GAB-AJ8sγE22W (TCR, part only; not given: CDR3 delta, constant parts, anti-CD3 scFv, part only)
TCR gamma, part: B1 TCR gamma, part with R73Y
TCR delta, part: B2 TCR delta, part
IFNγ release after 20 hours of coculture, potency against GAB-AJ8s [1]: 10 fold | IFNγ release relative to GAB-AJ8s (GAB expression media, T cells with MZ1851RC or SCC9, 30 µM pamidronate) [1]: 5.6 fold | T cell mediated tumor cell killing (luciferase), activity against GAB-AJ8s [1]: > 10 fold | fold difference in EC50 of tumor cell killing between GAB-AJ8s and GAB-AJ8γE22W [1]: 15.5 fold | mean fold difference in EC50 of GAB against GAB-AJ8s [2]: 15.5 fold

B7: GAB-AJ8sγE22WδG31V (TCR, part only; not given: CDR3 delta, constant parts, anti-CD3 scFv, part only)
TCR gamma, part: B1 TCR gamma, part with R73Y
TCR delta, part: B2 TCR delta, part with G31V
IFNγ release, potency against the single mutants (combined Vγ9 and Vδ2 mutations; RPMI8226 and SCC9) (BTN3A1/A2/A3): 10 fold | T cell mediated killing of RPMI8226 and SCC9, potency against GAB-AJ8s (BTN3A1/A2/A3): > 100 fold | T cell mediated killing of RPMI8226 and SCC9, potency against the single Vγ9 or Vδ2 mutants (BTN3A1/A2/A3): > 10 fold | IFNγ release, potency against the single mutants (combined Vγ9 and Vδ2 mutations; RPMI8226 and SCC9) [1]: 10 fold | T cell mediated killing of RPMI8226 and SCC9, potency against GAB-AJ8s [1]: > 100 fold | T cell mediated killing of RPMI8226 and SCC9, potency against the single Vγ9 or Vδ2 mutants [1]: > 10 fold

B8: GAB-AJ8sγT81H (TCR, part only; not given: CDR3 delta, constant parts, anti-CD3 scFv, part only)
TCR gamma, part: B1 TCR gamma, part with R73Y
TCR delta, part: B2 TCR delta, part
mean fold difference in EC50 of GAB against GAB-AJ8s [3]: 2.4 fold | IFNγ production relative to GAB-AJ8s (GAB expression media, MZ1851RC, 30 µM pamidronate) [1]: 4.2 fold | fold difference in EC50 of tumor cell killing against GAB-AJ8s [1]: 2.4 fold

B10: GAB-AJ8s-Vγ9 mutation T83L (TCR, part only; not given: CDR3 delta, constant parts, anti-CD3 scFv, part only)
TCR gamma, part: B1 TCR gamma, part with W22E, R73Y, T83L
TCR delta, part: B2 TCR delta, part
IFNγ production relative to GAB-AJ8s (GAB expression media, MZ1851RC, 30 µM pamidronate) [1]: 2 fold

Further lines, with some results ahead:

IFNγ release after 20 hours of coculture, potency against GAB-AJ8s (BTN3A1/A2/A3): 10 fold
B3: GAB-AJ8sδG31V (TCR, part only; not given: CDR3 delta, constant parts, anti-CD3 scFv, part only)
TCR gamma, part: B1 TCR gamma, part with W22E, R73Y
TCR delta, part: B2 TCR delta, part with G31V

IFNγ production relative to GAB-AJ8s (GAB expression media, MZ1851RC, 30 µM pamidronate) [1]: 8.8 fold
B6: GAB-AJ8sγT83I (TCR, part only; not given: CDR3 delta, constant parts, anti-CD3 scFv, part only)
TCR gamma, part: B1 TCR gamma, part with W22E, R73Y, T83I
TCR delta, part: B2 TCR delta, part

IFNγ release after 20 hours of coculture, potency against GAB-AJ8s (BTN3A1/A2/A3): 10 fold
B9: GAB-AJ8sδK53S (TCR, part only; not given: CDR3 delta, constant parts, anti-CD3 scFv, part only)
TCR gamma, part: B1 TCR gamma, part with W22E, R73Y
TCR delta, part: B2 TCR delta, part with K53S

IFNγ production relative to GAB-AJ8s (GAB expression media, MZ1851RC, 30 µM pamidronate) [1]: 2 fold
B11: GAB-AJ8sγT81W (TCR, part only; not given: CDR3 delta, constant parts, anti-CD3 scFv, part only)
TCR gamma, part: B1 TCR gamma, part with W22E, R73Y, T81W
TCR delta, part: B2 TCR delta, part
mean fold difference in EC50 of GAB against GAB-AJ8s [3]: 2.8 fold | fold difference in EC50 of tumor cell killing against GAB-AJ8s [1]: 2.8 fold
